Measured values: US20180022779

B1: human CytB5R3 (endogenous, vascular cell co-culture and human coronary ECs) (protein)
chain: GAQLSTLGHMVLFPVWFLYSLLMKLFQRSTPAITLESPDIKYPLRLIDREIISHDTRRFRFALPSPQHILGLPVGQHIYLSARIDGNLVVRPYTPISSDDDKGFVDLVIKVYFKDTHPKFPAGGKMSQYLESMQIGDTIEFRGPSGLLVYQGKGKFAIRPDKKSNPIIRTVKSVGMIAGGTGITPMLQVIRAIMKDPDDHTVCHLLFANQTEKDILLRPELEELRNKHSARFKLWYTLDRAPEAWDYGQGFVNEEMIRDHLPPPEEEPLVLMCGPPPMIQYACLPNLDHVGHPTERCFVF
B2: FLAG-tagged CytB5R3 (Origene) (protein)
chain: B1 chain

Target: purified Hb α chains (isolated from lyophilized hemoglobin, Sigma), P69905
Sequence (P69905 2-142): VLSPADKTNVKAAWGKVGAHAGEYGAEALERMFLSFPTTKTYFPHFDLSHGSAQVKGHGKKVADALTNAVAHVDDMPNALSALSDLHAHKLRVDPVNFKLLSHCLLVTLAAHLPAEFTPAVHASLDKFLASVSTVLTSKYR

Protein | met-Hb α reduction, time lapse UV-visible spectrometry of EC lysates mixed with purified Hb α chains and NADH | met-Hb α reduction, time lapse UV-visible spectrometry of lysates of ECs transfected with CytB5R3-Flag, mixed with purified Hb α chains and NADH
B1 | loss of CytB5R3 inhibited metHb α reduction | –
B2 | – | overexpression enhanced metHb α reduction
